Results reported in paper PMC3597676.

Columns and labels:
Hfq [1] = target: T1, Hfq (UniProt P0A6X3 1-102); assay: EMSA
Hfq [2] = target: T1, Hfq; assay: EMSA; remark: listed apart in the source

T1 sequence (P0A6X3 whole entry): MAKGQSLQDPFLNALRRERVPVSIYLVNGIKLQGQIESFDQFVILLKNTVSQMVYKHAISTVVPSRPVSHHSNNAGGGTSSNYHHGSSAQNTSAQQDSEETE

B1: MicAstab (structured_RNA)
RNA: GAAAGACGCGCAUUUGUUAUCAUCAUCCCUGGGAAAGCGACCGUUUCCCUGGCCACUCACGAGUGGCCUUUUAAAA
Kd (Hfq [1]): 1.5 nM

B2: MicAstab + ompA leader (structured_RNA)
RNA 1: B1 RNA
RNA 2: GGGCCAGGGGUGCUCGGCAUAAGCCGAAGAUAUCGGUAGAGUUAAUAUUGAGCAGAUCCCCCGGUGAAGGAUUUAACCGUGUUAUCUCGUUGGAGAUAUUCAUGGCGUAUUUUGGAUGAUAACGAGGCGCAAAAAAUGAAAAAGACAGCUAUCGCGAUUGCAGUGGCA
binding result (Hfq [2]): binds
